One experiment deals with JAK3 JH1 domain (UniProt P52333 822-1111). The experiment can be described thus: SPR. In general terms: SPR reads the build-up and loss of mass on a sensor chip optically.
A further experiment has as its target T1, TYK2 JH1 domain (UniProt P29597 897-1176).
T1 chain: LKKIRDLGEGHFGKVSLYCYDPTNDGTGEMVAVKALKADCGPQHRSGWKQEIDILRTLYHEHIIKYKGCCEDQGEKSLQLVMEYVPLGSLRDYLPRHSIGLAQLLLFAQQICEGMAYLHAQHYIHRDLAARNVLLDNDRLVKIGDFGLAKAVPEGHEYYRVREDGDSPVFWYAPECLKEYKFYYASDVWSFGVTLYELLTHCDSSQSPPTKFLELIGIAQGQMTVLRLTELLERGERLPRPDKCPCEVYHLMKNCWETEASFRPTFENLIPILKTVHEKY
The experiment can be described thus: SPR.

Sequence of JAK3 JH1 domain (P52333 822-1111): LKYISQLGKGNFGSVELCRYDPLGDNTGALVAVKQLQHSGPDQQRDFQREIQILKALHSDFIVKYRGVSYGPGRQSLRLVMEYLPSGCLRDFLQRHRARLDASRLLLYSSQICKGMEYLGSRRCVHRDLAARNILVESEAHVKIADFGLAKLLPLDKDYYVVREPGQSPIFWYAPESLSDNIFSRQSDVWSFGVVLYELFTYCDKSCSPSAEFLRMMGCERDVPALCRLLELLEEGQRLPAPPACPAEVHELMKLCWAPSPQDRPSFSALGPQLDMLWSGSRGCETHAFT

B1: SOCS5 175–244 fragment (domain or fragment)
chain: RSLRQRLQDTVGLCFPMRTYSKQSKPLFSNKRKIHLSELMLEKCPFPAGSDLAQKWHLIKQHTAPVSPHS
B1: the results for the Kd in the experiment with JAK3 JH1 domain and in the experiment with TYK2 JH1 domain were 2100 nM and 1200 nM, respectively.

(Values after publication PMC3749136 (2013).)
